From PMC7736470

Biological target: Neuropeptide Y (Homo sapiens), P01303
Conditions: remark: other sources report otherwise

Kd: 35 nM
B1: Neuropeptide Y receptor type 2, P49146 (protein)
chain: MGPIGAEADENQTVEEMKVEQYGPQTTPRGELVPDPEPELIDSTKLIEVQVVLILAYCSIILLGVIGNSLVIHVVIKFKSMRTVTNFFIANLAVADLLVNTLCLPFTLTYTLMGEWKMGPVLCHLVPYAQGLAVQVSTITLTVIALDRHRCIVYHLESKISKRISFLIIGLAWGISALLASPLAIFREYSLIEIIPDFEIVACTEKWPGEEKSIYGTVYSLSSLLILYVLPLGIISFSYTRIWSKLKNHVSPGAANDHYHQRRQKTTKMLVCVVVVFAVSWLPLHAFQLAVDIDSQVLDLKEYKLIFTVFHIIAMCSTFANPLLYGWMNSNYRKAFLSAFRCEQRLDAIHSEVSVTFKAKKNLEVRKNSGPNDSFTEATNV
